Test results: patent US20200131474A1, “METHODS AND COMPOSITIONS FOR OCULAR CELL THERAPY” (Novartis AG, priority 2018, published 2020)

B1: CR000455: gRNA targeting B2M; targeting domain UUACCCCACUUAACUAUCUU (SEQ ID NO: 138); sgRNA SEQ ID NO: 175 (nucleic acid)
guide: UUACCCCACUUAACUAUCUUGUUUUAGAGCUAGAAAUAGCAAGUUAAAAUAAGGCUAGUCCGUUAUCAACUUGAAAAAGUGGCACCGAGUCGGUGCUUUU
modifications: listed as RNA, chemistry not given here
B2: CR000446: gRNA targeting B2M; targeting domain AGGGUAGGAGAGACUCACGC (SEQ ID NO: 136); sgRNA SEQ ID NO: 173 (nucleic acid)
guide: AGGGUAGGAGAGACUCACGCGUUUUAGAGCUAGAAAUAGCAAGUUAAAAUAAGGCUAGUCCGUUAUCAACUUGAAAAAGUGGCACCGAGUCGGUGCUUUU
modifications: listed as RNA, chemistry not given here
B3: CR000456: gRNA targeting B2M; targeting domain CUUACCCCACUUAACUAUCU (SEQ ID NO: 139); sgRNA SEQ ID NO: 176 (nucleic acid)
guide: CUUACCCCACUUAACUAUCUGUUUUAGAGCUAGAAAUAGCAAGUUAAAAUAAGGCUAGUCCGUUAUCAACUUGAAAAAGUGGCACCGAGUCGGUGCUUUU
modifications: listed as RNA, chemistry not given here
B4: 4-CR004366: gRNA targeting B2M (Dharmacon); targeting domain CAGUAAGUCAACUUCAAUGU (SEQ ID NO: 111); sgRNA SEQ ID NO: 162 (nucleic acid)
guide: CAGUAAGUCAACUUCAAUGUGUUUUAGAGCUAGAAAUAGCAAGUUAAAAUAAGGCUAGUCCGUUAUCAACUUGAAAAAGUGGCACCGAGUCGGUGCUUUU
modifications: listed as RNA, chemistry not given here
B5: CR000443: gRNA targeting B2M; targeting domain CGCGAGCACAGCUAAGGCCA (SEQ ID NO: 135); sgRNA SEQ ID NO: 172 (nucleic acid)
guide: CGCGAGCACAGCUAAGGCCAGUUUUAGAGCUAGAAAUAGCAAGUUAAAAUAAGGCUAGUCCGUUAUCAACUUGAAAAAGUGGCACCGAGUCGGUGCUUUU
modifications: listed as RNA, chemistry not given here
B6: CR000453: gRNA targeting B2M; targeting domain CACAGCCCAAGAUAGUUAAG (SEQ ID NO: 137); sgRNA SEQ ID NO: 174 (nucleic acid)
guide: CACAGCCCAAGAUAGUUAAGGUUUUAGAGCUAGAAAUAGCAAGUUAAAAUAAGGCUAGUCCGUUAUCAACUUGAAAAAGUGGCACCGAGUCGGUGCUUUU
modifications: listed as RNA, chemistry not given here
B7: 8-HEYJA000004: gRNA targeting B2M; targeting domain ACUCACGCUGGAUAGCCUCC (SEQ ID NO: 115 in Table 10, 118 in Table 4); sgRNA SEQ ID NO: 166 (nucleic acid)
guide: ACUCACGCUGGAUAGCCUCCGUUUUAGAGCUAGAAAUAGCAAGUUAAAAUAAGGCUAGUCCGUUAUCAACUUGAAAAAGUGGCACCGAGUCGGUGCUUUU
modifications: listed as RNA, chemistry not given here
B8: CR000442: gRNA targeting B2M; targeting domain GGCCACGGAGCGAGACAUCU (SEQ ID NO: 134); sgRNA SEQ ID NO: 171 (nucleic acid)
guide: GGCCACGGAGCGAGACAUCUGUUUUAGAGCUAGAAAUAGCAAGUUAAAAUAAGGCUAGUCCGUUAUCAACUUGAAAAAGUGGCACCGAGUCGGUGCUUUU
modifications: listed as RNA, chemistry not given here
B9: 6-HEYJA000001: gRNA targeting B2M; targeting domain GGCCGAGAUGUCUCGCUCCG (SEQ ID NO: 113); sgRNA SEQ ID NO: 164 (nucleic acid)
guide: GGCCGAGAUGUCUCGCUCCGGUUUUAGAGCUAGAAAUAGCAAGUUAAAAUAAGGCUAGUCCGUUAUCAACUUGAAAAAGUGGCACCGAGUCGGUGCUUUU
modifications: listed as RNA, chemistry not given here
B10: 9-HEYJA000005: gRNA targeting B2M; targeting domain UCACGUCAUCCAGCAGAGAA (SEQ ID NO: 116); sgRNA SEQ ID NO: 167 (nucleic acid)
guide: UCACGUCAUCCAGCAGAGAAGUUUUAGAGCUAGAAAUAGCAAGUUAAAAUAAGGCUAGUCCGUUAUCAACUUGAAAAAGUGGCACCGAGUCGGUGCUUUU
modifications: listed as RNA, chemistry not given here

Experiments:
YAP = assay: Exposure of LSCs to LATS inhibitors, intracellular YAP distribution by immunohistochemistry; assay type: cell-based, human; conditions: 10 micromolar, 24 hours, compared with DMSO control; data not shown
Experimental: Research-consented cadaveric human corneas were obtained from eye banks. Limbal rims were dissected and partially dissociated in a 1.2 mg/ml dispase solution for 2 hours at 37° C. followed by 10 minutes in TrypLE (Life Technologies). Pieces of limbal crypts were then carefully cut out of the partially dissociated limbal rims and rinsed by centrifugation). Cells obtained in this manner were used in the Examples below.
Cells were cultured under these conditions for 24 hours at 37° C. in 5% CO2.
To measure the effect of the LATS inhibitors on the downstream target YAP, intracellular YAP distribution was analyzed by immunohistochemistry. Cell cultures were fixed with 4% PFA for 20 minutes, permeabilized and blocked in a blocking solution of 0.3% Triton X-100 (Sigma-Aldrich) and 3% donkey serum in PBS for 30 minutes. Cells were then labeled with primary antibody in the blocking solution for 12 hours at 4° C. Primary antibody used was anti-YAP from Santa Cruz Biotechnology. Samples were washed in PBS three times and donkey-raised secondary antibody Alexa Fluor 488 (Molecular Probes) at 1:500 dilution were applied for 30 minutes at room temperature. […] Fluorescence was observed using a Zeiss LSM 880 confocal microscope.

limbal stem cells = assay: Human limbal stem cell population expansion, immunohistochemical observation of p63alpha phenotype; assay type: cell-based; conditions: for colony formation and p63alpha expression: 10 micromolar, 6 days after isolation without passaging, DMSO as negative control
Experimental: Cells were first cultured at 37° C. in 5% CO2 for 6 days after isolation without passaging (FIGS. 2A, 2B and 2C).
To evaluate the ability of the compounds to enable LSC expansion after two passages, LSCs were passaged and cultured for two weeks in the presence of compound example 3 to enable expansion (FIG. 2D). Limbal stem cells (LSCs) were passaged by treating cultures with Accutase for 10 minutes at 37° C., rinsing the cell suspension by centrifugation and plating cells in fresh LSC culture medium supplemented with LATS inhibitor compound example 3.
In order to observe that the expanded cell population expressed p63alpha, this was measured by immunohistochemistry as follows. Cell cultures were fixed with 4% PFA for 20 minutes, permeabilized and blocked in a blocking solution of 0.3% Triton X-100 (Sigma-Aldrich) and 3% donkey serum in PBS for 30 minutes. Cells were then labeled with primary antibody in the blocking solution for 12 hours at 4° C. Primary antibody used was p63alpha from Cell Signalling. Samples were washed in PBS three times and donkey-raised secondary antibody Alexa Fluor 488 (Molecular Probes) at 1:500 dilution were applied for 30 minutes at room temperature. Cells were counter-stained with a human nuclear antigen antibody (Millipore) at a 1:500 dilution in order to label all cells in the culture and confirm their human identity. […] Fluorescence was observed using a Zeiss LSM 880 confocal microscope.

phospho-YAP (ser127) = assay: Exposure of LSCs to LATS inhibitors, YAP phosphorylation by western blot; assay type: cell-based, human; conditions: 10 micromolar, 1 hour, DMSO as negative control
Experimental: The medium was then replaced by fresh limbal epithelium cell culture medium (DMEM F12 supplemented with 10% human serum and 1.3 mM calcium chloride) supplemented with LATS inhibitor compound example no. […] Cells were cultured under these conditions for 1 hour at 37° C. in 5% CO2.
To measure the effect of the LATS inhibitors on the downstream target YAP, the YAP phosphorylation levels were measured by western blot as follows. The cell pellets were obtained by trypsin dissociation and centrifugation and washed with PBS. The pellets were lysed with 30 microlitres of RIPA lysis buffer containing protease inhibitor cocktail (Life Technologies) for 30 minutes, with vortexing every 10 minutes. The cell debris were then pelleted at 4° C. for 15 minutes at 14 k rpm and the protein lysate was collected. Protein concentration was quantified using a micro BCA kit (Pierce). Fifteen micrograms of total protein was loaded in each well of 4-20% TGX gels (BioRad) and Western blotting was performed according to the manufacturer's instructions. […] Membranes were stained with HRP-conjugated secondary antibodies, rinsed and imaged using a ChemiDoc system (Biorad) according to the manufacturer's instructions.

[1] = tested on: potential off-target sites; assay: Off-target activity detection in limbal stem cells by targeted PCR and NGS; assay type: cell-based, human; conditions: edited LSCs vs non-edited PBMCs; positive sites of sequenced loci
Experimental: Potential CRISPR/Cas9-mediated cutting sites identified above were evaluated using targeted PCR and NGS in genome-edited expanded LSCs.
Selected sgRNAs (SEQ ID NO: 120, 162, 166, 167, 171, and 175) were further analyzed by amplicon sequencing in edited and non-edited cells. Primers flanking the potential off-target sites for each guide were used to detect indels by NGS analysis in edited LSCs and non-edited peripheral blood mononuclear cells. Sites that had either (1) a difference in mean indel percentage between edited and unedited cells greater than 0.5%; or (2) a p value less than 0.05 between edited and unedited indel were further analyzed. NGS sequence reads for such sites were assessed for characteristic indel patterns near the putative Cas9 cut site.

[2] = tested on: genomic DNA purified from male human peripheral blood mononuclear cells; assay: Biochemical method for potential off-target genomic sites cleaved by Cas9 and B2M guides; conditions: guide concentration of 64 nM
Description: A biochemical method (See, e.g., Cameron et al., Nature Methods. 6, 600-606; 2017) was used to determine potential off-target genomic sites cleaved by Cas9 and selected B2M guides.

Molecule | Number of sites positive for off-target activity in LSCs [1] | off-target Site_Count [2] | also measured
CC(C)(O)CC(C)(C)Nc1nc(-c2ccncc2)nc2cnccc12 [Example 3, 2,4-dimethyl-4-{[2-(pyridin-4-yl)pyrido[3,4-d]pyrimidin-4-yl]amino}pentan-2-ol] |  |  | YAP immunostaining in the nucleus of LSCs (YAP): stronger; colony formation and p63alpha expression (limbal stem cells): the cells formed colonies and expressed p63alpha; cell population expansion after passaging, p63alpha expression (limbal stem cells; passaged and cultured for two weeks in the presence of compound): enabled cell population expansion and the formation of confluent cultures expressing p63alpha; YAP phosphorylation levels in human LSCs (Western blot) (phospho-YAP (ser127)): caused a reduction in YAP phosphorylation levels; YAP phosphorylation levels in human LSCs (Western blot) (phospho-YAP (ser127); listed as ex. 3): induce YAP dephosphorylation
Cc1n[nH]cc1-c1nc(NC2(C)CC2)c2ccncc2n1 [Example 4, 2-(3-methyl-1H-pyrazol-4-yl)-N-(1-methylcyclopropyl)pyrido[3,4-d]pyrimidin-4-amine] |  |  | YAP immunostaining in the nucleus of LSCs (YAP): stronger; colony formation and p63alpha expression (limbal stem cells): the cells formed colonies and expressed p63alpha; YAP phosphorylation levels in human LSCs (Western blot) (phospho-YAP (ser127); listed as ex. 4): induce YAP dephosphorylation; YAP phosphorylation levels in human LSCs (Western blot) (phospho-YAP (ser127); listed as example no. 4): caused a reduction in YAP phosphorylation levels
B1 | zero | 48 | 
B2 |  | 98 | 
B3 |  | 66 | 
B4 | zero | 92 | 
B5 |  | 117 | 
B6 |  | 82 | 
B7 | zero | 62 | 
B8 | zero | 29 | 
B9 |  | 8 | 
B10 | zero | 35 | 
